Experimental data as given in article doi:10.1101/2020.10.12.335539.

Experiments:
[1] = molecular target: humanized anti-hCD20 IgG1 (Rituximab) (human); assay: flow cytometry on cells
[2] = molecular target: HCMV-IgG hyperimmunoglobulin preparation (Cytotect) (human); assay: flow cytometry on cells

Row | percent reduction of FcγRIII binding to immune complexes [1] [%] | Substance | percent reduction of FcγRIII binding to opsonized infected cells [2] [%]
1 | 60 | CD4-tailed gp68 (gp68-CD4) | 
2 |  | HCMV gp68 on the surface of HCMV AD169/pBAC2-infected MRC-5 cells (from UniProt P16739 24-345) (natural protein) | 60
